Laboratory results as given in patent publication US20030108916.

How the values were obtained:
GST-Xchk1(306-352) S344A = GST-Xchk1(306-352) S344A (UniProt Q6DE87)
[1] = target: GST-Xchk1(306-352) S344A+T314A (UniProt Q6DE87)
GST-Xchk1(306-352) T314A = GST-Xchk1(306-352) T314A (UniProt Q6DE87)
[2] = target: GST-Xchk1(306-352), wild type peptide fragment (UniProt Q6DE87)
GST-Xchk1(347-374) S356A = GST-Xchk1(347-374) S356A (UniProt Q6DE87)
GST-Xchk1(347-374) S365A = GST-Xchk1(347-374) S365A (UniProt Q6DE87)
[3] = target: GST-Xchk1(347-374) S365A+S356A (UniProt Q6DE87)
[4] = target: GST-Xchk1(347-374), wildtype peptide fragment (UniProt Q6DE87)
[5] = target: GST-Xchk1-N135A (kinase inactive Xchk1 mutant, bacterially expressed) (UniProt Q6DE87)
[6] = target: GST-Xchk1-N135A-4AQ (bacterially expressed) (UniProt Q6DE87)
[7] = tested on: PHAS-I (model substrate protein)

Sequence of Xenopus laevis ATR (Xatr), endogenous protein in Xenopus egg extracts (chain, as listed by the source): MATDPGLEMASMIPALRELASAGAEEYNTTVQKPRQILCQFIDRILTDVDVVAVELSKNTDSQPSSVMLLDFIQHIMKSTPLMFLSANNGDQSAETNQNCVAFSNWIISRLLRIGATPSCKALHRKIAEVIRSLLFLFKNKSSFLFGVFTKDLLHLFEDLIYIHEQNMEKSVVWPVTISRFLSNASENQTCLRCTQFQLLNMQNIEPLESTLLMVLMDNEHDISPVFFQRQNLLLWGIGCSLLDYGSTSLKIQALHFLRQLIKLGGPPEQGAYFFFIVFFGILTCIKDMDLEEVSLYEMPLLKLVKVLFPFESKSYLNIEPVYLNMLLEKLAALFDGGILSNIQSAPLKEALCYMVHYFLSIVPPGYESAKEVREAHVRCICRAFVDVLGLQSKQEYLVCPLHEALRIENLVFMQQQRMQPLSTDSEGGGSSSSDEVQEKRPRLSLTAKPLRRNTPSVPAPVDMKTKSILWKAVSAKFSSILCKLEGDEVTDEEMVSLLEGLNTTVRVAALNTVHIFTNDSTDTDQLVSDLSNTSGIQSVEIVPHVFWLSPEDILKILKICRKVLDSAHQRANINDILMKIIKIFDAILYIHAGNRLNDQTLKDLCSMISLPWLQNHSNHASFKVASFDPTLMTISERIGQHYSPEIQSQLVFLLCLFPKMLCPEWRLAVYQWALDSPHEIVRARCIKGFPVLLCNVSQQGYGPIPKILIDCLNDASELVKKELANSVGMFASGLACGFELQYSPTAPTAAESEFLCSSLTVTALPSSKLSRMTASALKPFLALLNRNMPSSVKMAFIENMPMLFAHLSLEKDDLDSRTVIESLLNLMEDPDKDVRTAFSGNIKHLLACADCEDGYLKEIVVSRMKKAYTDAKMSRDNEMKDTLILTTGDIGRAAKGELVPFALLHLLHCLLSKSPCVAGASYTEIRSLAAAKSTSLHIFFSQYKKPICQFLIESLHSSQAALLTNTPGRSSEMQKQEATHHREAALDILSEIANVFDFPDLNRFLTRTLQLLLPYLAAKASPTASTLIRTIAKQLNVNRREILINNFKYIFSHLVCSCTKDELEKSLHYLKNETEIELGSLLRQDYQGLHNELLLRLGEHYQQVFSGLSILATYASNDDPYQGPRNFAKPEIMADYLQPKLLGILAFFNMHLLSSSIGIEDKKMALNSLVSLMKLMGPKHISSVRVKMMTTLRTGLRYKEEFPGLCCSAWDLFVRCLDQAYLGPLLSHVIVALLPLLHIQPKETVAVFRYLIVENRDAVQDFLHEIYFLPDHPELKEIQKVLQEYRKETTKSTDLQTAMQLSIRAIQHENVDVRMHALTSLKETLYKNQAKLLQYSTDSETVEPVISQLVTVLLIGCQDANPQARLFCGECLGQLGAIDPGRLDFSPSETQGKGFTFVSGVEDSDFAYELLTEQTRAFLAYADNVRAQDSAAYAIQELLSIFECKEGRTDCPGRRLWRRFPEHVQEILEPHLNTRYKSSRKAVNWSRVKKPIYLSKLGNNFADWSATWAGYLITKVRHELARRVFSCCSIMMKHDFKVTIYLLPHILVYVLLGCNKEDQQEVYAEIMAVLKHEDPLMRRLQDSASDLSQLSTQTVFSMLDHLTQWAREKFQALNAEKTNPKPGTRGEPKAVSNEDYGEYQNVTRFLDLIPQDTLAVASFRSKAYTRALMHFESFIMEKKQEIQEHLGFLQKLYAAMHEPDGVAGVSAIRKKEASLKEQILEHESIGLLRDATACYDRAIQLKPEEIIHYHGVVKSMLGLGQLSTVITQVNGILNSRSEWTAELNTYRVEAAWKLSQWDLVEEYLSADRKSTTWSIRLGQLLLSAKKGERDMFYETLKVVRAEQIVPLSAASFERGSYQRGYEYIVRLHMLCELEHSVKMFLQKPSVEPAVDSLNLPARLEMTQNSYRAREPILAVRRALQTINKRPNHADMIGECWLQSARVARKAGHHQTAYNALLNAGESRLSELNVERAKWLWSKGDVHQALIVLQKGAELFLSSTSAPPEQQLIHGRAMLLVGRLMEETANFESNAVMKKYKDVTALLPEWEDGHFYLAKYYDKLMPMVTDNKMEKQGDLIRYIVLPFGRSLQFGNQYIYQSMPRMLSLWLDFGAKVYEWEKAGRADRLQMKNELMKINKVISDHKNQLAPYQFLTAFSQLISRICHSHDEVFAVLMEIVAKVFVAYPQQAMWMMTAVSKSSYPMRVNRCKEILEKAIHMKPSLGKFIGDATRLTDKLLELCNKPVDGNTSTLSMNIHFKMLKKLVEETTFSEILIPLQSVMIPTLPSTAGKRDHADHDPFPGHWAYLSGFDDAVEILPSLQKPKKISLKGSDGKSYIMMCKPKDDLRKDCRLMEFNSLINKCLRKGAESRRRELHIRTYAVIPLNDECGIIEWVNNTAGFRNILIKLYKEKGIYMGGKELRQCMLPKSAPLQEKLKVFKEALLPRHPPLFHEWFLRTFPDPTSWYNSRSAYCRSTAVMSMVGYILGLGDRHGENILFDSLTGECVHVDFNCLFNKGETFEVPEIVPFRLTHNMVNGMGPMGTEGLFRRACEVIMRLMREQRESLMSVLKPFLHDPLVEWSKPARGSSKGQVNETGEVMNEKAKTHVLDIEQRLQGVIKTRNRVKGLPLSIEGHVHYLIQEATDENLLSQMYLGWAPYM
Sequence of GST-Xchk1(306-352) S344A+T314A (Q6DE87 whole entry T314A/S344A, looked up, tested part not stated): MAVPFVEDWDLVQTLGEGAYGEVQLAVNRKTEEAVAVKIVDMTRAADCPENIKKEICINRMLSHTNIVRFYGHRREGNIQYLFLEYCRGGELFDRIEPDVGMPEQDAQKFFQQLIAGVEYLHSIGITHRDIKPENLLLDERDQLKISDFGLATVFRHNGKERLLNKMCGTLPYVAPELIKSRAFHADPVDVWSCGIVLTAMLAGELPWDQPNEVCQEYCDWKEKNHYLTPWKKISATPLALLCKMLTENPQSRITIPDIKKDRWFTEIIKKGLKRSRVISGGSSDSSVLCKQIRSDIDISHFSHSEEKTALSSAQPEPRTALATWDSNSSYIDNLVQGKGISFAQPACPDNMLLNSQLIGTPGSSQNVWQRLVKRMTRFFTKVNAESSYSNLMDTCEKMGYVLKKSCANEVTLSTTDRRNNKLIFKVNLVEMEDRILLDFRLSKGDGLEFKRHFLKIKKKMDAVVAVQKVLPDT
Sequence of GST-Xchk1(347-374), wildtype peptide fragment (Q6DE87 347-374): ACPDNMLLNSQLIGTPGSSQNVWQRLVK
Sequence of GST-Xchk1(306-352), wild type peptide fragment (Q6DE87 306-352): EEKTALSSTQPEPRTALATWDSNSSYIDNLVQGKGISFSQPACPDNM
Sequence of GST-Xchk1(347-374) S356A (Q6DE87 whole entry S356A, looked up, tested part not stated): as the sequence (Q6DE87 whole entry T314A/S344A, looked up, tested part not stated) above, with A314T, A344S, S356A counted along it
Sequence of GST-Xchk1(306-352) T314A (Q6DE87 whole entry T314A, looked up, the tested form may be a part): as the sequence (Q6DE87 whole entry T314A/S344A, looked up, tested part not stated) above, with A344S counted along it
Sequence of GST-Xchk1(306-352) S344A (Q6DE87 whole entry S344A, looked up, tested part not stated): as the sequence (Q6DE87 whole entry T314A/S344A, looked up, tested part not stated) above, with A314T counted along it
Sequence of GST-Xchk1(347-374) S365A (Q6DE87 whole entry S365A, looked up, tested part not stated): as the sequence (Q6DE87 whole entry T314A/S344A, looked up, tested part not stated) above, with A314T, A344S, S365A counted along it
Sequence of GST-Xchk1(347-374) S365A+S356A (Q6DE87 whole entry S356A/S365A, looked up, the tested form may be a part): as the sequence (Q6DE87 whole entry T314A/S344A, looked up, tested part not stated) above, with A314T, A344S, S356A, S365A counted along it
Sequence of GST-Xchk1-N135A-4AQ (bacterially expressed) (Q6DE87 whole entry N135A, looked up): as the sequence (Q6DE87 whole entry T314A/S344A, looked up, tested part not stated) above, with N135A, A314T, A344S counted along it
Sequence of GST-Xchk1-N135A (kinase inactive Xchk1 mutant, bacterially expressed) (Q6DE87 whole entry N135A, looked up): as the sequence (Q6DE87 whole entry T314A/S344A, looked up, tested part not stated) above, with N135A, A314T, A344S counted along it

Row | Substance | in vitro phosphorylation of Xchk1 peptides (GST-Xchk1(306-352) S344A) | in vitro phosphorylation of Xchk1 peptides [1] | in vitro phosphorylation of Xchk1 peptides (GST-Xchk1(306-352) T314A) | in vitro phosphorylation of Xchk1 peptides [2] | in vitro phosphorylation of Xchk1 peptides (GST-Xchk1(347-374) S356A) | in vitro phosphorylation of Xchk1 peptides (GST-Xchk1(347-374) S365A) | in vitro phosphorylation of Xchk1 peptides [3] | in vitro phosphorylation of Xchk1 peptides [4] | in vitro phosphorylation (32P-ATP, autoradiography) [5] | in vitro phosphorylation (32P-ATP, autoradiography) [6] | phosphorylation of PHAS-I (in vitro kinase assay, autoradiography) [7]
1 | Xenopus laevis ATR (Xatr), endogenous protein in Xenopus egg extracts | Xatr phosphorylated Xchk1 when a single SQ or TQ site is mutated although the level of phosphorylation is significantly reduced in comparison to that observed with wildtype peptide | mutation of both sites within each peptide (S365A+S356A or S344A+T314A) abolished phosphorylation by Xatr (lanes 4 and 8) | Xatr phosphorylated Xchk1 when a single SQ or TQ site is mutated although the level of phosphorylation is significantly reduced in comparison to that observed with wildtype peptide | Xatr phosphorylated both of the wildtype peptide fragments (lanes 1 and 5-top panel) | Xatr phosphorylated Xchk1 when a single SQ or TQ site is mutated although the level of phosphorylation is significantly reduced in comparison to that observed with wildtype peptide | Xatr phosphorylated Xchk1 when a single SQ or TQ site is mutated although the level of phosphorylation is significantly reduced in comparison to that observed with wildtype peptide | mutation of both sites within each peptide (S365A+S356A or S344A+T314A) abolished phosphorylation by Xatr (lanes 4 and 8) | Xatr phosphorylated both of the wildtype peptide fragments (lanes 1 and 5-top panel) | Xatr phosphorylates Xchk1 in vitro (compare lane 5 to lane 6) | the resulting mutant (GST-Xchk1-N135A-4AQ) was not phosphorylated by Xatr (lane 4) | these immunoprecipitates phosphorylated a model substrate protein (PHAS-I) in vitro
2 | Wildtype human Flag-tagged ATR isolated from 293T cells | human ATR phosphorylated each of the single point mutant Chk1 substrates (S365A, S356A, S344A and T314A); the level of phosphorylation of the single mutant forms of Xchk1 by human ATR is also reduced | human ATR does not phosphorylate the double mutant XChk1 substrates (S365A+S356A or S344A+T314A-as shown in lanes 4 and 12) | human ATR phosphorylated each of the single point mutant Chk1 substrates (S365A, S356A, S344A and T314A); the level of phosphorylation of the single mutant forms of Xchk1 by human ATR is also reduced | Wildtype human ATR phosphorylated the wildtype XChk1 peptides Xchk1 (306-352) and Xchk1(347-374) | human ATR phosphorylated each of the single point mutant Chk1 substrates (S365A, S356A, S344A and T314A); the level of phosphorylation of the single mutant forms of Xchk1 by human ATR is also reduced | human ATR phosphorylated each of the single point mutant Chk1 substrates (S365A, S356A, S344A and T314A); the level of phosphorylation of the single mutant forms of Xchk1 by human ATR is also reduced | human ATR does not phosphorylate the double mutant XChk1 substrates (S365A+S356A or S344A+T314A-as shown in lanes 4 and 12) | Wildtype human ATR phosphorylated the wildtype XChk1 peptides Xchk1 (306-352) and Xchk1(347-374) |  |  | 
